In publication PMC5031558 (2016):

T1: SPATA2_PIM (Homo sapiens (Human), UniProt Q9UM82)
T1 chain: DVDLYTDSEPR

T2: p97_PIM (Homo sapiens (Human), UniProt P55072)
T2 chain: TEDNDDDLYG

T3: OTULIN_PIM (Homo sapiens (Human), UniProt Q96BN8)
T3 chain: AEHEEDMYRAADEIEKEKE


Legend:
Assay in all cases: FP, FITC-Ahx peptide
[1] = target: T1, SPATA2_PIM
[2] = target: T2, p97_PIM
[3] = target: T3, OTULIN_PIM

Binder | Kd [1] | Kd [2] | Kd [3]
HOIP_PUB (protein) MPGEEEERAFLVAREELASALRRDSGQAFSLEQLRPLLASSLPLAARYLQLDAARLVRCNAHGEPRNYLNTLSTALNILEKYGRNLLSPQRPRYWRGVKFNNPVFRSTVDAVQGGRDVLRLYGYTEEQPDGLSFPEGQEEPDEHQVATVTLEVLLLRTELSLLLQNTHPRQQALEQLLEDKVED | 0.36 µM | 10.2 µM | 
PNGase_PUB (protein) GSASPAVAELCQNTPETFLEASKLLLTYADNILRNPNDEKYRSIRIGNTAFSTRLLPVRGAVECLFEMGFEEGETHLIFPKKASVEQLQKIRDLIAIER | > 100 µM | 2.1 µM | 

The remaining lines, values ahead:

Kd [1] | Kd [2] | Kd [3] | Binder
> 100 µM | 27.1 µM |  | UBXN6_PUB (protein) STDPVAASIMKIYTFNKDQDRVKLGVDTIAKYLDNIHLHPEEEKYRKIKLQNKVFQERINCLEGTHEFFEAIGFQKVLLPAQDQEDPEEFYVLSETTLAQPQSLERHKEQLLAAE
> 100 µM | > 100 µM | > 100 µM | SPATA2_PUB (protein) MDTKFKDDLFRKYVQFHESKVDTTTSRQRPGSDECLRVAASTLLSLHKVDPFYRFRLIQFYEVVESSLRSLSSSSLRALHGAFSMLETVGINLFLYPWKKEFRSIKTYTGPFVYYVKSTLLEEDIRAILSCMGYTPELGTAYKLRELVETLQVKMVSFELFLAKVECEQMLEIHSQVKDKGYSELDIVSERKSSAEDVRGCSDALRRRAEGRE
